Measurements from US20210332138A1 (1GLOBE BIOMEDICAL, published 2021).

Legend:
[1] = biological target: T1, Rhesus PDL1-GFP (expression construct transiently transfected into 293T cells) (Rhesus, UniProt F6VEW6 19-290); assay: FACS on 293T cells transiently transfected with Rhesus PDL1-GFP
T1 construct: whole, on cells; not shown: GFP fused to PDL1
Method: (A) 293T cells were transiently transfected with Rhesus PDL1-GFP expression construct. Embodiments 4-1E8, 3-1E4 and 3-1B11 were tested and compared to control.

[2] = biological target: T2, Rhesus PDL1 (expression construct transiently transfected into 293T cells) (Rhesus, UniProt F6VEW6 19-290); assay: FACS on 293T cells transiently transfected with Rhesus PDL1
T2 construct: whole, on cells
Method: (B) 293T cells were transiently transfected with Rhesus PDL1 expression construct. Embodiments 4-1E8, 3-1E4 and 3-1B11 were tested and compared to control.

T1 sequence (chain, as listed by the source): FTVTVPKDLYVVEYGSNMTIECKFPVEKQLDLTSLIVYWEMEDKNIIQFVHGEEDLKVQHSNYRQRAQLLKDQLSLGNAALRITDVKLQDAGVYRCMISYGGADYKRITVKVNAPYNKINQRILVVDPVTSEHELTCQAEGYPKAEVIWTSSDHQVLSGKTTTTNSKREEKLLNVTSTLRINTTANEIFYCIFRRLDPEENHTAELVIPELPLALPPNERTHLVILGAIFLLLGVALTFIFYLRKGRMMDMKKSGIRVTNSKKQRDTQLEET

Row | binding result [1] | binding result [2] | Binder
1 | binds | binds | full-length antibody 3-1E4 (antibody, human IgG1, V domains shown, Tested as a full-length antibody; the summary speaks of human IgG1) VH: QIQLVQSGAEVKKPGSSVKVSCKASGGTFSSYAISWVRQAPGQGLEWMGGIIPIFGTANYAQKFQGRVTITADKSTSTAYMELSSLRSEDTAVYYCAGGGAVADNSYWGQGTLVTVSS VL: DIRMTQSPSSLSASVGDRVTITCRASQGIRNDLGWYQQKPGKAPKLLIYAASSLQSGVPSRFSGSGSGTDFTLTISSLQPEDFATYYCLQDYNYPRTFGQGTKVEIK
2 | binds | binds | full-length antibody 4-1E8 (antibody, human IgG1, V domains shown, Tested as a full-length antibody made from the scFv's VH and VL in 293T cells; the summary speaks of a human IgG1 constant region, and ADCC activity is reported) VH: QIQLVQSGAEVKMPGASVTISCEASGYNFISYYIHWVRQAPGQGLEWMGFVVPSGGAAGYTQKFQGRLTVTRDTSTSTVYMDLNSLTSDDTAVYYCVREMSGGWFDFWGQGTLVTVSS VL: DIVMTQSPSSLSASVGDRVTITCRASQGIRNDLGWYQQKPGKAPKLLIYAASTLQSGVPSRFSGSGSGTDFTLTISSLQAEDVAVYYCQQYYSTPLTFGPGTKVDIK
3 | binds | binds | full-length antibody 3-1B11 (antibody, human IgG1, V domains shown, Tested as a full-length antibody; the summary speaks of human IgG1) VH: EVQLVESGGGLVQPGGSLRLSCAASGFTFSDYDMIWVRQAPGKGLEWVAVISYDGSNKYYADSVKGRFTISRDNSKNTLYLQMNSLRAEDTAVYYCAKEFFGAFDIWGQGTMVTVSS VL: SSELTQDPAVSVALGQTVTITCQGDSLNYYYANWFQLKPGQAPVLVLFGKNNRPSGIPDRFSGSYSGSTASLTITGAQAEDDADYYCNSRDSGGNPWVFGGGTKLTVL
